Experimental findings from FireProtDB (doi:10.1016/0022-2836(92)90907-2) are described below.

The conditions of this data set: Bacillus amyloliquefaciens; pH 6.3; 25 °C; Urea; Fluorescence; MES 450 mM; reversible: yes; whole UniProt chain shown.

B1: Ribonuclease wild type, P00648 (protein)
chain: MMKMEGIALKKRLSWISVCLLVLVSAAGMLFSTAAKTETSSHKAHTEAQVINTFDGVADYLQTYHKLPDNYITKSEAQALGWVASKGNLADVAPGKSIGGDIFSNREGKLPGKSGRTWREADINYTSGFRNSDRILYSSDWLIYKTTDHYQTFTKIR
Regarding B1, the denaturant m value turned out to be 1.92 kcal/mol/M, the “denaturant midpoint (higher = more stable)” value was found to be 4.6 M and the unfolding free energy was found to be 8.83 kcal/mol.
